The source of these data is the supplement of paper PMC10126150.

± gives the standard deviation of the averaged measurements.
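Note: ATP exposure 15 min at 22 °C before imaging.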

The data set relates to ATP. The data set is described as follows: switch fluorescence ratio, 500 uM ATP over buffer (Cy3 cluster intensity, sum of 5 cycles each) (fold (ratio)); higher = stronger signal-on switching upon ATP binding; sequences stand for … in TCGTCGGCAGCGTCAGATGTGTATAAGAGACAGTTTTTTTTTTTTTTTTTTTTTTTTT…TC. The settings on record: aptamer strand: ATP DNA aptamer (quencher-CACCTGGGGGAGTATTGCGGAGGAAGG + anchor), 100 nM annealed; ATP concentration: 500 uM. The gist of the method: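 After annealing to 100 nM quencher-labelled ATP aptamer, Cy3-labelled switching-strand clusters on a modified Illumina MiSeq flow-cell were imaged in selection buffer. A second image followed after 15 min with 500 uM ATP at 22 °C, and five such buffer/ATP cycles were done, each separated by NaOH stripping and re-annealing. The fluorescence ratio, averaged per switch-domain sequence, is summed target-cycle over summed buffer-cycle Cy3 intensity per cluster, with clusters outside 100-1000 RFU excluded.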
Turning to CTTGTGCAAG, the switch fluorescence ratio is 1.03 ± 0.024.

As to GAGCAGCATT, the switch fluorescence ratio is 1.05 ± 0.014.

AAAAGGCCGG: the switch fluorescence ratio was found to be 1.05 ± 0.14.

In the case of CCTGTGGATC, the switch fluorescence ratio stood at 1.05 ± 0.042.

For the sequence GGTGGGTAAT, the switch fluorescence ratio came to 0.983 ± 0.015.

As to TTTTGTGACA, the switch fluorescence ratio came out at 1 ± 0.027.

For the sequence CATTTCACGC, the switch fluorescence ratio amounted to 1.0996 ± 0.00041.

As for TTAAGGCGTT, the switch fluorescence ratio stood at 0.9791 ± 0.0071.

On to TATGGCTCTA, for which the switch fluorescence ratio came out at 0.9731 ± 0.00019.

With CGGGGGCAGT, the switch fluorescence ratio was determined as 1.006 ± 0.0067.

Take CGGTTGCATT: the switch fluorescence ratio amounted to 1.04 ± 0.031.

Turning to TTGGGTATAA, the switch fluorescence ratio came to 0.989 ± 0.03.

With GCTTTTAGCC, the switch fluorescence ratio turned out to be 0.991 ± 0.043.

Regarding ATGCAGGATT, the switch fluorescence ratio was determined as 0.981 ± 0.02.

For TCAGGGTCAG, the switch fluorescence ratio was found to be 1.007 ± 0.0063.

For the sequence ATACTTACTT, the switch fluorescence ratio was found to be 1.197 ± 0.011.

As to TATGGTGGGG, the switch fluorescence ratio was determined as 0.986 ± 0.034.

For the sequence AGCTTAGGGG, the switch fluorescence ratio amounted to 1.07 ± 0.11.

Take GGGCGATGGG: the switch fluorescence ratio came out at 1.02 ± 0.084.

Consider TGAGAGGGTG, for which the switch fluorescence ratio amounted to 1.04 ± 0.041.

With TATAATCGTG, the switch fluorescence ratio was found to be 0.988 ± 0.021.

Regarding ATGTTTCTGA, the switch fluorescence ratio amounted to 0.9851 ± 0.0032.

Consider CGTTAAAGAT, for which the switch fluorescence ratio stood at 1.03 ± 0.023.

For GACGGTCATG, the switch fluorescence ratio came to 0.995 ± 0.018.

On to TGATTCATGA, for which the switch fluorescence ratio was found to be 0.925 ± 0.033.

Take CCCCGGGGGG: the switch fluorescence ratio amounted to 1.09 ± 0.15.

CGTTTTGCGG: the switch fluorescence ratio was found to be 1.04 ± 0.052.

TGAGGTTGAG: the switch fluorescence ratio amounted to 1.03 ± 0.059.

In the case of TGTATATTGG, the switch fluorescence ratio came out at 0.995 ± 0.015.

As for CGGGTGGTTA, the switch fluorescence ratio amounted to 1.01 ± 0.022.

For GCCTTTTGCC, the switch fluorescence ratio turned out to be 1.044 ± 0.0094.

Regarding TGAGGGTCGG, the switch fluorescence ratio stood at 0.972 ± 0.041.

Take AAATGCGTTA: the switch fluorescence ratio came to 1.01 ± 0.02.

On to TGGATGATAT, for which the switch fluorescence ratio was 0.9913 ± 0.008.

As to ACTAGGGTAT, the switch fluorescence ratio worked out at 0.982 ± 0.061.

Take TGTTGCCACG: the switch fluorescence ratio is 1 ± 0.0062.

Consider TTGCAGTTC, for which the switch fluorescence ratio was determined as 1.88 ± 1.

Consider CTCCTCGTGC, for which the switch fluorescence ratio was found to be 3.49 ± 0.47.

For TAGAGAAATT, the switch fluorescence ratio came out at 0.976 ± 0.023.

In the case of ACATCAGAAG, the switch fluorescence ratio was 1.02 ± 0.039.

As for CCGTTGACCT, the switch fluorescence ratio turned out to be 1.073 ± 0.01.

Consider GCTCTTATTA, for which the switch fluorescence ratio turned out to be 0.977 ± 0.021.

As for TATATTTTCA, the switch fluorescence ratio came out at 1.01 ± 0.068.

For the sequence ACCATTTTTG, the switch fluorescence ratio is 0.985 ± 0.057.

For the sequence ACAAAGTGTG, the switch fluorescence ratio is 1.03 ± 0.035.

In the case of TATTTTTTTA, the switch fluorescence ratio was found to be 0.997 ± 0.039.

Turning to TCAAGTGTTT, the switch fluorescence ratio was found to be 0.993 ± 0.015.

As for GATTGGACTA, the switch fluorescence ratio turned out to be 1 ± 0.035.

Turning to TCGCTTTT, the switch fluorescence ratio amounted to 1.02 ± 0.02.

Take GGTATGCAGG: the switch fluorescence ratio came to 0.985 ± 0.026.

In the case of TCACTGAGCT, the switch fluorescence ratio was 1.05 ± 0.034.

Regarding CAGGTTTGGC, the switch fluorescence ratio turned out to be 0.9775 ± 0.002.

AGGGGCGTGA: the switch fluorescence ratio was found to be 0.99 ± 0.011.

Take ATCAGATTAC: the switch fluorescence ratio was found to be 1.025 ± 0.0092.

Regarding ATTATTATGG, the switch fluorescence ratio came out at 1.01 ± 0.015.

Turning to TTGCTTCGGG, the switch fluorescence ratio is 0.968 ± 0.028.

Turning to GTTTGTTACT, the switch fluorescence ratio worked out at 0.964 ± 0.052.

For ACGATTAGAC, the switch fluorescence ratio is 1.12 ± 0.029.

For TTTGTATTAG, the switch fluorescence ratio is 1 ± 0.028.

Regarding TGGTAGTTTG, the switch fluorescence ratio is 0.9951 ± 0.0039.

With TTGGAGTTGG, the switch fluorescence ratio was found to be 0.976 ± 0.043.

Take GTTTGTTATC: the switch fluorescence ratio stood at 0.98 ± 0.0057.

In the case of TTGGGTAGGA, the switch fluorescence ratio was found to be 1.03 ± 0.04.

On to TTGGATGTGG, for which the switch fluorescence ratio turned out to be 1.02 ± 0.022.

As to GGTTAGCTGC, the switch fluorescence ratio came to 0.991 ± 0.023.

For the sequence GCCCGCCCGC, the switch fluorescence ratio turned out to be 1.38 ± 0.18.

Take TTGGGTCCGG: the switch fluorescence ratio is 1.03 ± 0.038.

For the sequence TGGTTTATTC, the switch fluorescence ratio is 0.986 ± 0.051.

Turning to CAAGGGGCAA, the switch fluorescence ratio was 0.964 ± 0.032.

Turning to GTATGGGTGT, the switch fluorescence ratio came out at 0.9711 ± 0.0078.

For the sequence GTTTTATTGT, the switch fluorescence ratio worked out at 0.955 ± 0.038.

Regarding CTGTTTAAGT, the switch fluorescence ratio is 1.005 ± 0.0073.

In the case of AAGGTAAGGG, the switch fluorescence ratio was determined as 1.01 ± 0.041.

On to CAAAAAACCT, for which the switch fluorescence ratio stood at 1.55 ± 0.55.

TTTGGAGCAC: the switch fluorescence ratio was 1.6 ± 0.2.

In the case of TTGGTTACGG, the switch fluorescence ratio is 1.014 ± 0.0041.

TCAAGATTAT: the switch fluorescence ratio was determined as 0.994 ± 0.027.

On to TTTGAGGGTC, for which the switch fluorescence ratio turned out to be 0.991 ± 0.037.

Turning to GCAGCTTTTA, the switch fluorescence ratio was 1.09 ± 0.018.

Consider CTATCATCAT, for which the switch fluorescence ratio was found to be 0.9978 ± 0.0084.

On to TTTATACGGT, for which the switch fluorescence ratio turned out to be 1.01 ± 0.005.

GTTTTTTAAG: the switch fluorescence ratio worked out at 0.9877 ± 0.0089.

As for CGTATAGGGA, the switch fluorescence ratio is 1.015 ± 0.01.

On to CAACTCTCTG, for which the switch fluorescence ratio turned out to be 1 ± 0.038.

Consider AGCTAGGCGC, for which the switch fluorescence ratio is 1.01 ± 0.027.

TGATAATGGG: the switch fluorescence ratio was determined as 0.982 ± 0.036.

Regarding TTTGAGCTGG, the switch fluorescence ratio worked out at 0.996 ± 0.035.

For GGACCGGCTA, the switch fluorescence ratio came to 0.998 ± 0.02.

GTGGTTCGGG: the switch fluorescence ratio stood at 0.975 ± 0.029.

Turning to GCGGGTAGTG, the switch fluorescence ratio is 1.02 ± 0.028.

On to TTCATTACCC, for which the switch fluorescence ratio was found to be 1.028 ± 0.0082.

With AATGTGGGTG, the switch fluorescence ratio is 1.03 ± 0.045.

As to GTATTATTTT, the switch fluorescence ratio turned out to be 0.979 ± 0.024.

Take TTGTTGTTTT: the switch fluorescence ratio was 0.995 ± 0.035.

As to ATATTAAGAT, the switch fluorescence ratio stood at 0.988 ± 0.028.

In the case of GGCTGAAGTT, the switch fluorescence ratio came out at 0.994 ± 0.022.

For the sequence TGAAGGTCGT, the switch fluorescence ratio is 0.99 ± 0.029.

With GACCATTTTT, the switch fluorescence ratio is 1.02 ± 0.038.

With ATTTGACCAT, the switch fluorescence ratio is 1.13 ± 0.18.

Take TTTTTGGATA: the switch fluorescence ratio came out at 1.02 ± 0.014.

For the sequence AAAGGGTCAG, the switch fluorescence ratio came out at 0.996 ± 0.034.

Regarding CGTTACAGGT, the switch fluorescence ratio was found to be 1.04 ± 0.028.

In the case of ACCTGGGTGG, the switch fluorescence ratio was 1.03 ± 0.036.

In the case of TAGCAAAAAG, the switch fluorescence ratio turned out to be 1.02 ± 0.031.

CGTATTCTGT: the switch fluorescence ratio worked out at 0.9845 ± 0.0037.

On to AATCATGGT, for which the switch fluorescence ratio came to 0.978 ± 0.019.

Take GATGATGTTT: the switch fluorescence ratio worked out at 0.973 ± 0.039.

On to AAAATGTTTC, for which the switch fluorescence ratio was 1.02 ± 0.02.

Take ATTGGCTGAC: the switch fluorescence ratio worked out at 1.13 ± 0.029.

For TCTATACTTT, the switch fluorescence ratio was found to be 1 ± 0.021.

Take GAGAGAGTGA: the switch fluorescence ratio is 0.963 ± 0.025.

Regarding ATGTAATCAC, the switch fluorescence ratio stood at 1.04 ± 0.049.

With AGTGTCTCCT, the switch fluorescence ratio was determined as 1.02 ± 0.058.

With GCCAGCATAT, the switch fluorescence ratio came to 1.153 ± 0.0062.

With GGGACAAGTC, the switch fluorescence ratio came to 1.023 ± 0.0067.

As for CGAGGGGGGC, the switch fluorescence ratio was found to be 1.02 ± 0.092.

For TGGGGGGCAA, the switch fluorescence ratio is 1.56 ± 1.1.

Regarding TGGATTAAGT, the switch fluorescence ratio was found to be 1.02 ± 0.042.

On to TTTTCAGAGT, for which the switch fluorescence ratio came out at 1 ± 0.022.

CAGAGGATAT: the switch fluorescence ratio amounted to 1.021 ± 0.01.
